Patent publication US11897966 (UTC THERAPEUTICS SHANGHAI, dated 2024)

B1: anti-mesothelin scFv-M15 (scFv)
chain: DIQLTQSPSSLSASIGDRVTITCRASQGVNSALAWYQQKPGKPPNLLIYDASSLESGVPSRFSGSGSGRDFTLTISSLQPEDFATYYCQQFSSYPLTFGGGTKVDIKGGGGSGGGGSGGGGSQVQLVQSGAEVKKPGASVKVSCKASGYTFTSYYMHWVRQAPGQGLEWMGIINPSGGSTSYAQKFQGRVTMTRDTSTSTVYMELSSLRSEDTAVYYCARAQRGGSVYFDYWGQGTLVTVSS
B2: anti-mesothelin scFv-M13 (scFv)
chain: AIRMTQSPSSLSASVGDRVTITCRASQGISNSLAWYQQKPGKAPKLLLYAASRLESGVPSRFSGSGSGTDYTLTISSLQPEDFATYYCQQYYSTPFTFGPGTKLEIKGGGGSGGGGSGGGGSQVQLVQSGAEVKKPGSSVKVSCKTSADTFSANTINWVRQAPGHGLEWMGRIIPSLNIRDYAQEFQGRVTFTADESTNTVYMQLTSLRSEDTAVYYCARDPGSTWSPNQFFPHWGQGTLVTVSS
B3: anti-mesothelin scFv-M6 (scFv)
chain: EIVMTQSPATLSLSPGERATLSCRASQSIGNSLAWYQQKPGQAPRLLIYDVSNRATGIPARFSGSGSGTDFTLTISSLEPEDFAVYYCQHRYSWPLTFGGGTKVEIKGGGGSGGGGSGGGGSQVQLVQSGGGLVKPGGSLRLSCAASGFTFSDYYMSWIRQAPGKGLEWVSYISSSGSTIYYADSVKGRFTISRDNAKNSLYLQMNSLRAEDTAVYYCARDGYRTHNWFDPWGQGTLVTVSS
B4: anti-mesothelin scFv-M7 (scFv)
chain: DIRLTQSPSSLSASLGDRVTITCRASQAISSALAWYQQKPGKAPRLLIYDASTLESGVPSRFSGSGSGTDFTLTISSLQPEDFATYYCQQADSFPLTFGGGTKLEIKGGGGSGGGGSGGGGSQVQLVQSGAEVKKSGESLKISCKGSGYGFGAYWIAWVRQMPGKGLEWMGIIYPGDSRVIYSPYFQGQVTISADKSISTAYLQWSSLKASDTAMYYCARFGGPKFATNWFDIWGQGTTVTVSS
B5: M18 (scFv)
chain 1: QVQLVQSGGGLVQPGGSLRLSCAASGFTFSSYWMHWVRQAPGKGLVWVSRINSDGSSTSYADSVKGRFTISRDNAKNTLYLQMNSLRAEDTAVYYCVRTGWVGSYYYYMDVWGKGTTVTVSS
chain 2: EIVLTQSPGTLSLSPGERATLSCRASQSVSSNYLAWYQQKPGQPPRLLIYDVSTRATGIPARFSGGGSGTDFTLTISSLEPEDFAVYYCQQRSNWPPWTFGQGTKVEIK
B6: anti-mesothelin scFv-M8 (scFv)
chain: DIQLTQSPSSLSASVGDRVTITCRASQSISSSLNWYQQKPGKAPKLLIYAASSLQSGVPSRFSGSGSGTDFTLTISSLQPEDFATYSCQQSYSTPLTFGGGTKVEIKGGGGSGGGGSGGGGSQVHLVESGGGVVQPGRSLRVSCAASGFTFSGYAMYWVRQAPGKGLEYVSAITTNGGSTNYADSVKGRFTISRDNSKNTLYLQMSSLRAGDTAVYYCARGAPGYRGYYMDVWGKGTTVTVSS
B7: anti-mesothelin scFv-M28 (scFv)
chain: QSALTQPPSASGSPGQSVTISCSGTSSDVGGYNFVSWYQHHPGKAPKLMIYEVSKRPSGVPDRFSGSKSGNTASLTVSGLQAEDEADYYCSSYAGRNNPYLFGTGTKLTVLGGGGSGGGGSGGGGSQLQLQESGAEVKKPGSSVKVSCKASGGTFSSYAISWVRQAPGQGLEWMGGIIPIFGTANYAQKFQGRVTITADESTSTAYMELSSLRSEDTAVYYCARDLGGYSYGHGLDYWGQGTLVTVSS
B8: anti-mesothelin scFv-M20 (scFv)
chain: AIQMTQSPSSLSASVGNRVTITCRASQGISSAVAWYQQKPGKPPKLLISYASSLESGVPSRFSGSGSGTDFSLTISSLQPEDFATYFCQQFNSYPLTFGGGTKVEIKGGGGSGGGGSGGGGSQVQLVQSGAEVRKPGESLKISCKGSGYSFRDSWIAWVRQMPGQGLEWMGIIFPGDSNPIYSPSFQGQVTISADTSISTTFLQWRSLKASDSAIYYCARHAAWGAGWFDPWGQGTLVTVSS
B9: anti-mesothelin scFv-M32 (scFv)
chain: DIRMTQSPSSLSASVGDRVTVTCQASEDINNSLNWYQQKPGKAPQLLIYDASDLETGVPSRFSGRGSGRDFTLTISSLQPEDFATYYCQQLNSYPLTFGGGTKLEIKGGGGSGGGGSGGGGSQVQLVQSGAEVKKPGASVKVSCKASGFTFIGYYLHWVRQAPGQGLEWMGIINPSGGRTSMAQKFQGRVSMTTDTSTGTVYLDLGRLGSDDTAVYYCARADNWNAGSMDVWGNGTTVTVSS
B10: anti-mesothelin scFv-M37 (scFv)
chain: DIVMTQTPSSLSASVGDRVTITCRASQGISNYLAWFQQKPGKAPKPLIYAASSLQSGVPSKFSGSGSGTDFTLTISNLQPEDFATYICQQYSSYPITFGQGTRLEIKGGGGSGGGGSGGGGSQLQLQESGPGLVKPSETLSLTCAVSGGSISPYYWTWIRQSPGKAMEWMGYIHYSGRTNYNPSLESRATFSVDTSKNQISLKLNSVTAADTAVYYCTKVGDPGLFDYWGPGTLVTVSS
B11: anti-mesothelin scFv-M31 (scFv)
chain: QSALTQPPSASGSPGQSVTISCTGTSSDIGGYNSVSWYQQHPGKAPKLIIYGVSRRPSGVPDRFSGSKSANTASLTVSGLQAVDEADYYCSSYGGSNNLLFGGGTKLTVLGGGGSGGGGSGGGGSEVHLVESGGGLAQPGGSLRLSCAASGFSFSSSWMAWVRQAPGKGLEWVANIKQDGSSQYYVDSVKGRFTISRDNAKNSLSLQMNSLRAEDTAVYYCARDIWYSIDYWGQGTLVTVSS
B12: anti-mesothelin scFv-M27 (scFv)
chain: EIVLTQSPGTLSLSPGERATLSCRASQPIVASHLAWYQHKPGQAPRLLIYGASTRAAGIPDRFSGSGSGTDFTLTISRLEPEDFAVYFCQQYGISPFTFGPGTKVDIKGGGGSGGGGSGGGGSQVQLVQSGAEVKKPGESLKISCQGSGYSFTDYWIGWVRQAPGQGLEWMGWITPNNGNTNYAPKFQGRVTLTTDTSTSTAYMELRSLTSDDTAVYFCARRGRNSSGYLYYYSMDVWGQGTTVTVSS
B13: anti-mesothelin scFv-M22 (scFv)
chain: QSALTQPASVSGSPGQSITLSCTGTRRDIGGYEYVSWYQQHPGKAPKLLIFSVNNRPSGVSHRFSGSKSGNTASLTISGLQAEDEAAYFCSSYSSRDTLVLFGGGTKLTVLGGGGSGGGGSGGGGSQVQLVQSGAEVKKPGSSVKVSCKASGGTFSSYAISWVRQAPGQGLEWMGGIIPIFGTANYAQKFQGRVTITADESTSTAYMELSSLRSEDTAVYYCASGRSGSYGLYWGQGTLVTVSS
B14: anti-mesothelin scFv-M24 (scFv)
chain: QPVLTQPPSASGTPGQRVTISCSGSSSNIGSNYVYWYQQFPGTAPKLLIYMNNQRPSGVPDRFSGSKSGTSASLAISGLRSEDEADYYCAARDDSLSGYVTFGGGTKLTVLGGGGSGGGGSGGGGSEVHLVESGGGLVQPGGSLRLSCAASGFTFSSYAMSWVRQAPGKGLEWVSAISGSGGSTYYADSVKGRFTISRDNSKNTLYLQMNSLKTEDTAVYYCTRGVATFDYWGQGTLVTVSS

Each binder was assayed against T1, mesothelin-Fc recombinant protein (human, UniProt Q13421 296-580, limits assumed) (assay: FACS of T cells expressing the scFv CAR, stained with Mesothelin-Fc + PE-anti-IgG-Fc; Mock T cells of the same block: 0.63).
T1 construct: also called mesothelin-Fc protein; human Mesothelin-Fc; not shown: Fc part
T1 sequence (Q13421 other isoform, or with tags, fused parts or gaps limits assumed): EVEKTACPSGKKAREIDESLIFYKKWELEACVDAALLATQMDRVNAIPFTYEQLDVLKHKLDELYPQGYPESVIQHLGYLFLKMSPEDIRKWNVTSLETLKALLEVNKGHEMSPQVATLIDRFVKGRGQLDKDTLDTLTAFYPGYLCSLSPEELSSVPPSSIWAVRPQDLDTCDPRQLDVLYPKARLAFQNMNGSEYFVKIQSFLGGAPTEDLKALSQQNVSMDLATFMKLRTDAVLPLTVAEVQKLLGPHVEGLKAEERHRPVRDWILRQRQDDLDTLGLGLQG

First: B1
Second: B2
The “number in the Mesothelin-Fc positive gate (percent of cells, unit not given)” value (shortened to “number … (percent of cells, unit not given)”) of the first is lower: 48.8 for the first, 71.1 for the second.

Compared with B3, B4 is lower in “number … (percent of cells, unit not given)” value: 83.4 for the first, 36.3 for the second.

First: B5
Second: B6
The “number … (percent of cells, unit not given)” value of the first is lower: 9.53 for the first, 80.8 for the second.

The binders below were run against T1, mesothelin-Fc recombinant protein (assay: FACS of T cells expressing the scFv CAR, stained with Mesothelin-Fc + PE-anti-IgG-Fc; Mock T cells of the same block: 0.97).

First: B7
Second: B8
The “number … (percent of cells, unit not given)” value of the first is higher: 82.8 for the first, 75.6 for the second.

First: B9
Second: B10
The “number … (percent of cells, unit not given)” value of the first is higher: 84.1 for the first, 74.2 for the second.

Compared with B11, B12 is higher in “number … (percent of cells, unit not given)” value: 67.9 for the first, 76.3 for the second.

Compared with B13, B14 is higher in “number … (percent of cells, unit not given)” value: 80 for the first, 93.6 for the second.
